Reference: publication PMC5148612

Legend:
[1] = biological target: Atg5 K57E,N84E-TAP (S. cerevisiae) (UniProt Q12380); experiment: co-IP; as a14 but with plasmid Atg16 E102A instead of Atg16 wild type (Figure 5F)
[2] = biological target: Atg5 K57E,N84E-TAP (S. cerevisiae) (UniProt Q12380); experiment: co-IP; lysates of atg16∆ atg19∆ S. cerevisiae with integrated Atg5-TAP or Atg5 K57E,N84E-TAP, plasmid 6xmyc-Atg19 and plasmid Atg16 wild type; IgG beads (Figure 5F)

Chain of Atg5 K57E,N84E-TAP (S. cerevisiae) (Q12380 whole entry K57E/N84E): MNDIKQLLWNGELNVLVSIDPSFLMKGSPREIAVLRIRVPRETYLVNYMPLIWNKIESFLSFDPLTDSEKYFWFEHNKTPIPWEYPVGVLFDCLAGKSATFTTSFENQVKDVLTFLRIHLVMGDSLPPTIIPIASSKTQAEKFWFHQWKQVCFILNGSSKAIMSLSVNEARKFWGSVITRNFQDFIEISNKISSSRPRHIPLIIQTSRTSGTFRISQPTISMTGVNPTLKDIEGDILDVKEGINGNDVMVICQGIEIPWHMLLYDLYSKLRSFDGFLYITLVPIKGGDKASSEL

6xmyc-Atg19 pulled down, percent of the sample with wild type Atg5 and Atg16 [1]: 2.9% | 6xmyc-Atg19 pulled down, percent of the sample with wild type Atg5 and Atg16 [2]: 13%
Substance: 6xmyc-Atg19 (from UniProt P35193 1-415) (natural protein)
